The source of these data is the DeepSol protein solubility set.

The data set is described as follows: soluble on expression in E. coli; label from the status in PepcDB or PDB records.
As to “MNVDLHCHSTASDGALSPTALVARAHEYGVRVLSLTDHDTLEGLEEARTAAHSLGMQLVNGVELSCTWGGATIHVLGYGFDTQAPALTEAIARLHEGRWLRAEEISRKLAIKGMPGALEGARAIQQALGDSGNAPARPHFADFMVRAGFVKDRAEAFRKWLGAGKLGDVKQHWPTLEDTVATLRASGAWVSLAHPSHYDFTRSKRRKLVGDFVQAGGHAIEVVNGMQPADQVGTLAILAREFGLLVSAGSDFHGPGNWGEIGTYRPVPEDLPPLWCRF”, the “soluble on expression in E. coli” value is “soluble”.

“MTKPIIGITANQRLNMALDNLPWSYAPTGFVQAVTQSGGLPLLLPIGDEAAAKTYVSMVDKIILIGGQNVDPKYYQEEKAAFDDDFSPERDTFELAIIKEAITLKKPILGICRGTQLMNVALGGNLNQHIDSHWQEAPSDFLSHEMIIEPDSILYPIYGHKTLINSFHRQSLKTVAKDLKVIARDPRDGTIEAVISTNDAIPFLGVQWHPELLQGVRDEDLQLFRLFVNDF”: the “soluble on expression in E. coli” value is “not soluble”.

Regarding “MSMLLGDHPELRSRAREIASLAARVVEQVNSMPAGEQKRLLSEQYPELARFEEQREKGDKGLPPLPGAVEGRVKLRFAPNPDFVIHMGNARPAIVNHEYARMYKGRMVLRFEDTDPRTKTPLREAYDLIRQDLKWLGVSWDEEYIQSLRMEVFYSVARRAIERGCAYVDNCGREGKELLSRGEYCPTRDLGPEDNLELFEKMLEGEFYEGEAVVRMKTDPRHPNPSLRDWVAMRIIDTEKHPHPLVGSRYLVWPTYNFAVSVDDHMMEITHVLRGKEHQLNTEKQLAVYRCMGWRPPYFIHFGRLKLEGFILSKSKIRKLLEERPGEFMGYDDPRFGTIAGLRRRGVLAEAIRQIILEVGVKPTDATISWANLAAANRKLLDERADRIMYVEDPVEMEVELAQVECRAAEIPFHPSRPQRKRRITLCTGDKVLLTREDAVEGRQLRLMGLSNFTVSQGILREVDPSLEYARRMKLPIVQWVKKGGEASVEVLEPVELELRRHQGYAEDAIRGYGVDSRLQFVRYGFVRVDSVEDGVYRVIYTHK”, the “soluble on expression in E. coli” value is on record as “soluble”.

“MAILIPASFGRLTITSRAQVRVRVSASANQRTIRRDSVDWVKETSSFFEEDKRPIMLFDGVCNLCNGGVKFVRDHDRNRSIRFEALQSEAGKKLLLRSGRAPDDISSVVLVENDRSYIKSEAVLKIMKYIDLPFPQLAFFLQFAPLFVRDFLYENVANNRYAMFGRSDSCEL”: the “soluble on expression in E. coli” value is reported as “soluble”.

“SKKLLFQFDTDATPSVFDVVVGYDGGADHITGYGNVTPDNVGAYVDGTIYTRGGKEKQSTAIFVGGGDMAAGERVFEAVKKRFFGPFRVSCMLDSNGSNTTAAAGVALVVKAAGGSVKGKKAVVLAGTGPVGMRSAALLAGEGAEVVLCGRKLDKAQAAADSVNKRFKVNVTAAETADDASRAEAVKGAHFVFTAGAIGLELLPQAAWQNESSIEIVADYNAQPPLGIGGIDATDKGKEYGGKRAFGALGIGGLKLKLHRACIAKLFESSEGVFDAEEIYKLAKEMA”: the “soluble on expression in E. coli” value was “soluble”.

Consider “MRRLAWLLPLLLLAGAVGALRYQWLDLPARWNPWLPLDVREPPNLLTRYKLWRLADDRSLCDAALATSQLRYQRVADDPPSATCPLSNSLRVRGAALELSSSFLASCPLAVSYALFERHVLQPAALDIYGQPLARVEHVGSFACRNVYNREDGRRSQHASANALDISGFRLADGRRIRLATDWAGESADGRFLRRVRDGACASFNAVLGPDYNAAHRDHFHLDMGLWKVCRLEHHHHHH”, for which the “soluble on expression in E. coli” value is on record as “not soluble”.

Consider “MGSDKIHHHHHHMSEFDVAVIGAGPAGSSAAIRLAQNGMNVLLVERGDPPGTKNVSGAVLWGNELAKVVPDWERSAPVERYVTRKEVAFLTEKSKIAISFSSEELQNSKSGKIIVRGKFDQWLAKKAKDAGAMLVTGVTVDRLAIDNGKVIGIQQDNDVITADAVVVAEGANPRVLINSGLRPKLSDRDVALGIKETIKLPENVINERFNVDSKSGFASEFVLGFLDDGLLSGGFLYTNKDTVSLGIVASLDRLRANGVTHSYDIMGKFEEHPFIKNLIKDGIPDEYAAHLVPEGGISSMPKLYGNGYLVAGDAAAFTFSNGMVLQGINYAITSGILAADTIIENRNNINENTLAKYVDKLRESYVLSDLYNFNGIQNVTWSDFVQKSLPTLAESVMMSLFDEKGMPKKHLRQIVTDAMKSGHMKYSDLITNGYRVIKRM”, for which the “soluble on expression in E. coli” value is reported as “not soluble”.

With “ERIQQFYFEVKNKDKFEALCRIIDVEEPETTIIFCRTKRGVDELVESMQFRGYNVEGMHGDMSQNQRINTLKKFKENNIDFLVATDVAARGIDVHNVSHVINYDIPQDMESYVHRIGRTGRANAEGIAYSLVTPREYVMIKQIEKFTKSKIRRKEIPTIDDIFETKYNTLTDKITKNIEKDDFKKYIPFVQKLDDEFNLVDVSAALVKMIFDKEMGFDYSDDDKLKSDESVR”, the “soluble on expression in E. coli” value is reported as “not soluble”.

For the sequence “MGSDKIHHHHHHLGESGKNFDHRRGWVESRLFELEAVFAIDVAAFAVMSNHLHVVLRIDIETANCWTDREVLEQWHKLFNGDEITQKFVKGEVVETHEVLRLKHSIATYRSRLCDISWFMRCLNEPIARQANQEDSCTGRFWEGRFKSQALLDEAAVLACMAYVDLNPIRAKMASTPEQSDHTSIQLRIQAALRGEQPISLLPFIGNERKNQPKGIAFSLQDYLELVDDTGRIIRNDKHGAISTNSAKLLTRLNIFQENWLKLTTEFGKLFHGPVGTLQELTSYCEHLEKRRRHFASCCQHLMAS”, the “soluble on expression in E. coli” value is on record as “not soluble”.

Consider “MSAQTDPGYFFMPNHIILIGASEQPYSLGERVLSNLLSTPFQGKITPVNPRHHTIAGLPAYTSLNKIPGNADLIIAVTLPDSYDTLFKTCRKKQLRHIILIQDWDNLSAAELHTAETAIRKHHGNGLNITACTTAGIQLPSLGLNISTQDGYAAGHTAILTGNAAVSRQIDNILNKLRQGTSRHISLHPGISPITSADWLNRFGHSLHTKTAVLHHNPEEDQRKLFSAIRQFTRHTPLILHITCRTTETDRAVLHCLARHCNFLVSFNADDLEAALRAQLSDLPPLSRLDILSDTPAEWLHAHAPKNLTLHFPNLPHHIRNGHLTGTPTPSICHDIASRQLAHPDTQAVLTILSPSGHEDYKKTARALIRLSEQTAKPLLVSSPFSDGITHFDTPTQAIRTLSYRNTAAALKQAQLDIAPPQPCRLKTPQPQNIKKALAAANPSLLAEALHLPPYRHTTHNAVQFQFDSHPLYGDILTARCNGQTTAVLPPFTTLDSRHLARFAELDGTQTLDQFLHTLTVIPEYRQHILGITLNLNGGQYSSDFLLKTPETHDTPKRKNTGKAAQTLEHAAAKMQSAAAYLKHKNPTAAEFLRHTSEAAAELLGSKTETGAAVPNVLAPYPAAYPKTLSLRNNTTVTITPILPEDAEAKQQFVRSLGPEARYTRFMTHTNELPAATLARLCNPDYHCEAAWTAKDADSNIVAVVRHSRLNRNECEFGITLAEHMRGSGLAQKMMELIIQTAAQQGYRTMSADILKTNTPMIKLAEKSGFTLKESDTEKNLYRAYLNLAADKTTEKTNKNLRTDHKIT”, for which the “soluble on expression in E. coli” value is “not soluble”.

Take “MEDYIKNWNKIISNCSFDNTYKMAWAKAIVETAISKDIDSALIISFEEIAELFLKYYWNQTIYFNLTQGSSLKKIPEALKYTKNLIDLYYAKKGDYFPQRYEKIIFEDFGIESEKNKTIKKIVKTLGQDVSWRFMNLSGETYPLYELVENQVVLSLENAKLLKKYSDFLFPMINYRWTQMLESFNHSPRISSKVRAIDEDSIKKRNNLNKFREFLDLEFSDNKRYCFYCGKEIVDDDLTIDHVIPWSFMYSDDIWNLVYCHRSENSSKSNRIPEETDVKALECRNKLLLEKLTENKISSKRVDELQLAIEKDYVKKFWISSRGLEHHHHHH”: the “soluble on expression in E. coli” value is reported as “not soluble”.

For the sequence “MASAIWYYTVLVAESVLGIVGLRLYEEPAYTVLDRPSDTIEIRRYAPRVAAEVDLERRGNADGQAFTLLFNYIAGANRGGSGTSERVAMTVPVDVARPAKIAMTAPVETATQDRMTRMRFFLPATFTADTAPKPSDERVQIVTVPEQTIATLRFSGTGRDLREREQQLIAALANTPWQPVGAPYGLFYDAPFTLPFVRRNEAAVEVAKRLEHHHHHH”, the “soluble on expression in E. coli” value was “not soluble”.

As to “MNSRQQSILQMVVDKGQMSVAELAKITGVSEVTIRQDLNTLEKQSYLRRAHGFAVSLESDDVETRMMTNYTLKRRLAEFAASLVSPGESVFIENGSSNALLARTLAEQKDVTIITVSSYIAHLLKETPCEVILLGGIYQKKSESMVGPLTRQFIHQVHFSKAFIGIDGWQADTGFTGRDMMRSDVVNAVLEKGSEAIVLTDSSKFGCVHPYPLGPLSRFHRVITDSKISASDQMQLEHAGLLVNVIGSSVLEHHHHHH”, the “soluble on expression in E. coli” value was “soluble”.

For “MVLALITLVVSAFLIPEVLADPCGDSNWRYFPQTNSCYKLIDENLPWTIAEFKCLFQGAHHVSIDSPEENQFVHELSRWSEIWTGAAFFGKDQHYVNSDGSRYGNFENWKDGRKPPMNRARRCIKMDGNGEWFQSCCKKKTFTICEKKAAYSASSYSGSNNSVNGFRFMRHRS”, the “soluble on expression in E. coli” value is on record as “not soluble”.

Consider “GPGSMSYYDKSSSVGYDERDKELNEELEAMLARTPPHIQRHLQQRIHDGILQRMKEETTRKCWEFVKKYEGCVNSVQPYNIRECLPHRDALNDCAHEINCEDNYQKYRLLYLHGELLKLHEHRTGQKMEALKSRVPDSIRTWKSDYAPKYADMMSEVGAKPFTGEGENLDDE”, for which the “soluble on expression in E. coli” value is “soluble”.

In the case of “AIAKETEQVSEAPHGLEGAWLDLTNRVRVSGDTVEACSAFSIGPPRCRWLLQATDRGVNCAALDHYVPHICGTHTETVYHIAHHRYIKRAVCEIPFFRFHKARIQVCTAKIACTEQVLPSADTDYPCLEPNDLIVGPSALNRAPRYTRAQDSTIEALILIVVGPDGTSDWRDGKLDDRPPYLTPAAIESLATRYPNMRHLLTNLPSVDRRRDGGLVRSHRAFFATDFAGDGTPSESPQKTITELLRVPPDWQLYDDAEGVVCISLAPIEGLDAIPSSVYFKSH”, the “soluble on expression in E. coli” value was “soluble”.

Consider “MGSDKIHHHHHHMVTIVPINEEERASIINGLKSSVPATKLITLKKIVDLTVLRPESLQYMEMTDKMAIQRIVSGIERIMEYDIDEVLKREASIALEKLKVTLGSKFVQNLFYCQNCNGVVDIGWENCANCGASLAEMEFAETKPCPNCNKHTSENWNNCAHCGFQLIKEEDKIQKCSGCKREVDPTWMVCPYCGTRLKVSKK”, for which the “soluble on expression in E. coli” value is given as “not soluble”.

Turning to “MHGKRIALCASRKLDEMTTLIEKQGGTAIIRPAQGTVFSKGSELGEEMRTVIAMRPDWIVFTTGIGFEALLEAADREGMAAQWHRTIKEANVAARGYKTVTALKQIGVTPVAVSEDGTTKGLIAALYGHDFADKNVVVQLYGDTAPALKQFFLEQGALYTELLPYRHIAPDEETLATLYKEIVGREVDAVCFTSAMQVRFFFSFAREKKEIAPLLDAFRTDVVACAVGKVTKEALEEEGVDRVIAPEHERMGAMIVTLARYFGA”, the “soluble on expression in E. coli” value is “not soluble”.

As for “AMSYTPGQPVTAVVQRVEIHKLRQGENLILGFSIGGGIDQDPSQNPFSEDKTDKGIYVTRVSEGGPAEIAGLQIGDKIMQVNGWDMTMVTHDQARKRLTKRSEEVVRLLVTRQ”, the “soluble on expression in E. coli” value was “soluble”.

In the case of “MGSDKIHHHHHHMKPNNWVSSSQATELLSKQLVTWPLAEKNYKALEAVQVKSFDMGGFSIRAQFNPARIVSTGAKVDARSLKERKCFLCPENLPVEQERLPFGFRHLVLCNPYPIFPQHFTIPTRKHTPQLILPQWNDFLELTRRLAPFTVFYNGPRSGASAPDHAHFQAVTRGIMPLDEEVTQFIRQSYASVYDNRIYPLTGNLRPGLVIQAATEEAATRLFKKIYAALPILPGEPEPMMNIFGSYYDNNWVITVIPRKRHRPWQYEAEGNDHLLSSPGAADIGGLFITPLEKDFKKINPELLRDVYQQVCLNDRDVEEIFVHLSSN”, the “soluble on expression in E. coli” value is on record as “not soluble”.
